Literature values as cited in patent US9504757B2, “Site-specific GLP-2 conjugate using an immunoglobulin fragment” (HANMI SCIENCE CO., LTD., priority 2011, dated 2016).

Conditions: inactivation by DPP IV; Bolette H. et al. 2000

## HADGSFSDEMNTILDNLAARDFINWLIQTKITD [GLP-2]
  in vivo half-life: ≤ 7 min
